Measured values taken from patent US20250243261A1 (CZ BIOHUB SF, published 2025).
Numbering of substitutions follows the chain as printed. Names and notes keep the numbering of the source. Like-named read-outs stand apart in the source and are kept apart here.

T1: full-length Ebola GP on pseudotyped lentivirus (Zaire ebolavirus, UniProt Q05320 33-676)
T1 sequence: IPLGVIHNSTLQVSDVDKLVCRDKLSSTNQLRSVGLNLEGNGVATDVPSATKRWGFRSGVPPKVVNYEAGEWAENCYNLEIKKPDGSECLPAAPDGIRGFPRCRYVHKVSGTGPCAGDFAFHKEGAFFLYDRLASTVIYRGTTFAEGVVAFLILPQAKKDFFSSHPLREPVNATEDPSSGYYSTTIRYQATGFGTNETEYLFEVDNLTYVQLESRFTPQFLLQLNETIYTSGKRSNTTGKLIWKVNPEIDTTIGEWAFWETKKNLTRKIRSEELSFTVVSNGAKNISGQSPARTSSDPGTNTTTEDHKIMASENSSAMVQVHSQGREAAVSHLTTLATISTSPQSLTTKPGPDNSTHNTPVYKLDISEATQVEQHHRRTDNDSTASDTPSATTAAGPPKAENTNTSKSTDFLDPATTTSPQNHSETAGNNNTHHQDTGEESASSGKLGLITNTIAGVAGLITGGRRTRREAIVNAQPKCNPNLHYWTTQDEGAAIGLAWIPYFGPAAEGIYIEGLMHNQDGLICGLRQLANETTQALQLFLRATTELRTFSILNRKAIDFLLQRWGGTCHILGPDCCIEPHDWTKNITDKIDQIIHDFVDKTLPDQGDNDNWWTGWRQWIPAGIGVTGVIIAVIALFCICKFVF

B1: mAb114 VH D42G-A68T-S79Y / VL V43A IgG (antibody, V domains shown)
VH: EVQLVESGGGLIQPGGSLRLSCAASGFALRMYDMHWVRQTIGKRLEWVSAVGPSGDTYYADSVKGRFTVSRENAKNSLYLQMNSLTAGDTAIYYCVRSDRGVAGLFDSWGQGILVTVSS
VL: DIQMTQSPSSLSASVGDRITITCRASQAFDNYVAWYQQRPGKAPKLLISAASALHAGVPSRFSGSGSGTHFTLTISSLQPEDVATYYCQNYNSAPLTFGGGTKVEIK
B2: mAb114 WT Fab (Fab, V domains shown)
VH: B1 VH with G42D, T68A, Y79S
VL: B1 VL with A43V
B3: mAb114 WT IgG (antibody, V domains shown)
VH: B1 VH with G42D, T68A, Y79S
VL: B1 VL with A43V
B4: mAb114 VH D42G-A68T-S79Y / VL V43A Fab (Fab, V domains shown)
VH: B1 VH
VL: B1 VL
B5: mAb114 UCA VH P60A-G61D / VL V43A IgG (antibody, V domains shown)
VH: EVQLVESGGGLVQPGGSLRLSCAASGFTFSSYDMHWVRQATGKGLEWVSAIGTAGDTYYADSVKGRFTISRENAKNSLYLQMNSLRAGDTAVYYCVRSDRGVAGLFDSWGQGTLVTVSS
VL: DIQMTQSPSSLSASVGDRVTITCRASQGISNYLAWYQQKPGKAPKLLIYAASTLQSGVPSRFSGSGSGTDFTLTISSLQPEDVATYYCQKYNSAPLTFGGGTKVEIK
B6: mAb114 UCA WT Fab (Fab, V domains shown)
VH: B5 VH with A60P, D61G
VL: B5 VL with A43V
B7: mAb114 UCA VH G88E IgG (antibody, V domains shown)
VH: B5 VH with A60P, D61G, G88E
VL: B5 VL with A43V
B8: mAb114 UCA VH G88E / VL V43A IgG (antibody, V domains shown)
VH: B5 VH with A60P, D61G, G88E
VL: B5 VL
B9: mAb114 UCA VH T41P-P60A-G61D-E72D-G88E-V96A IgG (antibody, V domains shown)
VH: B5 VH with T41P, E72D, G88E, V96A
VL: B5 VL with A43V
B10: mAb114 UCA VL K90Q IgG (antibody, V domains shown)
VH: B5 VH with A60P, D61G
VL: B5 VL with A43V, K90Q
B11: mAb114 UCA VH V96A IgG (antibody, V domains shown)
VH: B5 VH with A60P, D61G, V96A
VL: B5 VL with A43V
B12: mAb114 UCA VH V96A / VL V43A IgG (antibody, V domains shown)
VH: B5 VH with A60P, D61G, V96A
VL: B5 VL
B13: mAb114 UCA VH E72D IgG (antibody, V domains shown)
VH: B5 VH with A60P, D61G, E72D
VL: B5 VL with A43V
B14: mAb114 UCA WT IgG (antibody, V domains shown)
VH: B5 VH with A60P, D61G
VL: B5 VL with A43V
B15: mAb114 UCA VH P60A-G61D-G88E-V96A / VL V43A IgG (antibody, V domains shown)
VH: B5 VH with G88E, V96A
VL: B5 VL
B16: mAb114 UCA VH P60A-G61D / VL V43A Fab (Fab, V domains shown)
VH: B5 VH
VL: B5 VL
B17: mAb114 UCA VH T41P-P60A-G61D-E72D-G88E-V96A / VL V43A IgG (antibody, V domains shown)
VH: B5 VH with T41P, E72D, G88E, V96A
VL: B5 VL
B18: mAb114 UCA VL V43A IgG (antibody, V domains shown)
VH: B5 VH with A60P, D61G
VL: B5 VL
B19: mAb114 UCA VH P60A-G61D IgG (antibody, V domains shown)
VH: B5 VH
VL: B5 VL with A43V

Experiments:
[1] = molecular target: T1, full-length Ebola GP on pseudotyped …; test: cell-based or functional assay
[2] = molecular target: T2, Ebola GP ectodomain (Mayinga, Zaire, 1976) with the mucin-like domain deleted (Zaire ebolavirus (Mayinga, 1976), UniProt Q05320 33-650)
[3] = molecular target: T2, Ebola GP ectodomain (Mayinga, Zaire, …); test: BLI, Fab
[4] = molecular target: T2, Ebola GP ectodomain (Mayinga, Zaire, …); remark: listed apart in the source
[5] = molecular target: T2, Ebola GP ectodomain (Mayinga, Zaire, …); remark: listed apart in the source
[6] = molecular target: T2, Ebola GP ectodomain (Mayinga, Zaire, …); remark: listed apart in the source
[7] = molecular target: T2, Ebola GP ectodomain (Mayinga, Zaire, …); test: BLI, Fab; remark: listed apart in the source
[8] = molecular target: T2, Ebola GP ectodomain (Mayinga, Zaire, …); test: BLI, IgG

| Binder | Kd [6] [nM] | further results |
| --- | --- | --- |
| B1 |  | Ebola GP pseudotyped lentivirus IC50 [1]: 0.96 nM; Kd [2]: < 0.001 nM |
| B2 |  | Kd [3]: 0.17 nM |
| B3 |  | Kd [2]: < 0.001 nM |
| B4 |  | Kd [4]: 0.06 nM; fold improvement in Kd vs wildtype [5]: 3 fold |
| B5 | 5 | fold improvement in Kd over wildtype [2]: 90 fold |
| B6 |  | Kd [7]: 75000 nM |
| B7 | 150 |  |
| B8 | 13 |  |
| B9 | 33 |  |
| B10 | 620 |  |
| B11 | 110 |  |
| B12 | 22 |  |
| B13 | 200 |  |
| B14 |  | Kd [8]: 400 nM |
| B15 | 13 |  |
| B16 | 480 |  |
| B17 | 15 |  |
| B18 | 60 |  |
| B19 | 120 |  |
